This experiment has as its target T1, biotinylated CD59 (Homo sapiens, UniProt P13987).
T1 construct: Recombinant soluble human CD59 with an additional C-terminal cysteine residue
T1 sequence (P13987 26-102 limits assumed): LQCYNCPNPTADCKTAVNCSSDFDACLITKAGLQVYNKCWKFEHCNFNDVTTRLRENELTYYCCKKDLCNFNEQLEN
The experiment in a line: mRNA-display cyclic peptide screen against CD59-biotin, NGS abundance after 6th selection round. To be noted: for Counts (raw counts for peptide sequence), Seq I: NGS sample Seq I; for Counts (raw counts for peptide sequence), Seq I / Counts (raw counts for peptide sequence), Seq II / Counts Seq I / Counts Seq II: sheet R6 (6th selection round); for Counts (raw counts for peptide sequence), Seq II: NGS sample Seq II; for Percentage of the pool, averaged across the two sequencing samples: average of Seq I and Seq II; for Percentage of the pool, averaged across the two sequencing samples / Percentage of the pool, Seq I / Percentage of the pool, Seq II / Percentage Seq I / Percentage Seq II / Percentage Average: sheet R6; for Percentage of the pool, Seq I: counts normalised by total counts of NGS sample Seq I; for Percentage of the pool, Seq II: counts normalised by total counts of NGS sample Seq II; for Percentage Seq I: counts normalised by total counts of sample Seq I; for Percentage Seq I / Percentage Seq II: percentage of the pool; for Percentage Seq II: counts normalised by total counts of sample Seq II; for Percentage Average: percentage of the pool averaged across the two sequencing samples; for Counts Seq I / Counts Seq II: raw NGS counts of peptide sequence; for Counts Seq I: sequencing sample Seq I; for Counts Seq II: sequencing sample Seq II. Summed up:
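Peptide–mRNA fusions were made by in vitro translation with a customised PURE express kit. The kit lacked release factor 1 and methionine and was supplemented with […] initiator tRNA carrying N-chloroacetyl-d-tyrosine. Thioether macrocycles were formed, then enriched and amplified over iterative rounds on CD59-biotin immobilised on streptavidin beads. NGS read counts per sequence were recorded after the 6th selection round.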

In the case of HVFGNRSSTRG, the “Counts (raw counts for peptide sequence), Seq I” value is on record as 69; the “Counts (raw counts for peptide sequence), Seq II” value turned out to be 6; the “Percentage of the pool, averaged across the two sequencing samples” value amounted to 0.015%; the “Percentage of the pool, Seq I” value was 0.016%. The “Percentage of the pool, Seq II” value came to 0.014%.

As to HVFGNRFFTRG, the “Percentage Seq I” value is 0.031%, the “Percentage Seq II” value was 0.039%, the “Percentage Average” value worked out at 0.035% and the “Counts Seq I” value was 135. For the same sequence, the “Counts Seq II” value was determined as 17.

Turning to SACGNRQIQYY, the “Counts (raw counts for peptide sequence), Seq I” value is reported as 51; the “Counts (raw counts for peptide sequence), Seq II” value amounted to 6; the “Percentage of the pool, averaged across the two sequencing samples” value is reported as 0.013%; the “Percentage of the pool, Seq I” value worked out at 0.012%. For the same sequence, the “Percentage of the pool, Seq II” value turned out to be 0.014%.

Turning to FVTGNRDHTSG, the “Counts (raw counts for peptide sequence), Seq I” value came out at 60; the “Counts (raw counts for peptide sequence), Seq II” value amounted to 4; the “Percentage of the pool, averaged across the two sequencing samples” value was determined as 0.011%; the “Percentage of the pool, Seq I” value was found to be 0.014%. For the same sequence, the “Percentage of the pool, Seq II” value was found to be 0.009%.

Turning to GPRNECHSQFQN, the “Percentage Seq I” value came out at 0.092%, the “Percentage Seq II” value is 0.086%, the “Percentage Average” value is given as 0.089% and the “Counts Seq I” value came to 401. Further, the “Counts Seq II” value came to 37.

In the case of SVTGNRDHTRG, the “Percentage Seq I” value is given as 0.021%, the “Percentage Seq II” value was found to be 0.026%, the “Percentage Average” value was 0.023% and the “Counts Seq I” value turned out to be 92. Also, the “Counts Seq II” value worked out at 11.

For the sequence CFANRLYGSDSR, the “Percentage Seq I” value turned out to be 0.040%, the “Percentage Seq II” value is on record as 0.039%, the “Percentage Average” value was found to be 0.040% and the “Counts Seq I” value was found to be 177. The “Counts Seq II” value is reported as 17.

With FISGSRSWRKQ, the “Percentage Seq I” value is on record as 0.036%, the “Percentage Seq II” value turned out to be 0.023%, the “Percentage Average” value is on record as 0.030% and the “Counts Seq I” value is 159. For the same sequence, the “Counts Seq II” value was found to be 10.

Turning to CAWGNRYTAYY, the “Counts (raw counts for peptide sequence), Seq I” value was 68; the “Counts (raw counts for peptide sequence), Seq II” value stood at 5; the “Percentage of the pool, averaged across the two sequencing samples” value was determined as 0.014%; the “Percentage of the pool, Seq I” value turned out to be 0.016%. Further, the “Percentage of the pool, Seq II” value is listed as 0.012%.

Turning to IALGDRTFSFG, the “Percentage Seq I” value stood at 0.366%, the “Percentage Seq II” value stood at 0.334%, the “Percentage Average” value was found to be 0.350% and the “Counts Seq I” value is given as 1603. Moreover, the “Counts Seq II” value turned out to be 144.

Regarding HVSGNRSFTRG, the “Percentage Seq I” value is on record as 0.024%, the “Percentage Seq II” value is recorded as 0.035%, the “Percentage Average” value worked out at 0.029% and the “Counts Seq I” value was 104. Besides, the “Counts Seq II” value was found to be 15.

On to FVTGNRGHTRG, for which the “Percentage Seq I” value is 0.024%, the “Percentage Seq II” value was found to be 0.016%, the “Percentage Average” value is reported as 0.020% and the “Counts Seq I” value is listed as 105. For the same sequence, the “Counts Seq II” value came to 7.

As to SWTWGNRTSVRG, the “Counts (raw counts for peptide sequence), Seq I” value was 36; the “Counts (raw counts for peptide sequence), Seq II” value worked out at 7; the “Percentage of the pool, averaged across the two sequencing samples” value is 0.012%; the “Percentage of the pool, Seq I” value turned out to be 0.008%. The “Percentage of the pool, Seq II” value amounted to 0.016%.

With CIRGTPTTV, the “Counts (raw counts for peptide sequence), Seq I” value is reported as 56; the “Counts (raw counts for peptide sequence), Seq II” value amounted to 3; the “Percentage of the pool, averaged across the two sequencing samples” value came out at 0.010%; the “Percentage of the pool, Seq I” value came out at 0.013%. Moreover, the “Percentage of the pool, Seq II” value was found to be 0.007%.

For GRLNECHVTWP, the “Counts (raw counts for peptide sequence), Seq I” value came to 43; the “Counts (raw counts for peptide sequence), Seq II” value is on record as 9; the “Percentage of the pool, averaged across the two sequencing samples” value came to 0.015%; the “Percentage of the pool, Seq I” value turned out to be 0.010%. Further, the “Percentage of the pool, Seq II” value was determined as 0.021%.

For CFTLRLSQTSV, the “Percentage Seq I” value is 0.156%, the “Percentage Seq II” value was 0.160%, the “Percentage Average” value was 0.158% and the “Counts Seq I” value came to 682. Further, the “Counts Seq II” value was 69.

Turning to GYLNECHTLYTL, the “Percentage Seq I” value was 0.024%, the “Percentage Seq II” value is 0.028%, the “Percentage Average” value came to 0.026% and the “Counts Seq I” value came out at 105. For the same sequence, the “Counts Seq II” value was determined as 12.

With HVFGNRPFTRG, the “Counts (raw counts for peptide sequence), Seq I” value amounted to 73; the “Counts (raw counts for peptide sequence), Seq II” value is 5; the “Percentage of the pool, averaged across the two sequencing samples” value came to 0.014%; the “Percentage of the pool, Seq I” value is listed as 0.017%. In addition, the “Percentage of the pool, Seq II” value came out at 0.012%.

As to HVFGSRSFTRG, the “Percentage Seq I” value is 0.074%, the “Percentage Seq II” value is 0.084%, the “Percentage Average” value is given as 0.079% and the “Counts Seq I” value was 323. Besides, the “Counts Seq II” value came out at 36.

Regarding KWGSSFFTLYRV, the “Counts (raw counts for peptide sequence), Seq I” value is 49; the “Counts (raw counts for peptide sequence), Seq II” value is 4; the “Percentage of the pool, averaged across the two sequencing samples” value is reported as 0.010%; the “Percentage of the pool, Seq I” value stood at 0.011%. Also, the “Percentage of the pool, Seq II” value was found to be 0.009%.

SWTWGNGSSVRG: the “Percentage Seq I” value is recorded as 0.187%, the “Percentage Seq II” value is 0.186%, the “Percentage Average” value was 0.186% and the “Counts Seq I” value worked out at 817. Further, the “Counts Seq II” value is listed as 80.

CFSPRVTEHST: the “Counts (raw counts for peptide sequence), Seq I” value came out at 62; the “Counts (raw counts for peptide sequence), Seq II” value is listed as 8; the “Percentage of the pool, averaged across the two sequencing samples” value turned out to be 0.016%; the “Percentage of the pool, Seq I” value was 0.014%. The “Percentage of the pool, Seq II” value is given as 0.019%.

Take CFSARATLDGGW: the “Percentage Seq I” value amounted to 0.036%, the “Percentage Seq II” value was found to be 0.030%, the “Percentage Average” value is listed as 0.033% and the “Counts Seq I” value was 157. The “Counts Seq II” value is given as 13.

As for CFSRRLTAGAS, the “Percentage Seq I” value was determined as 0.024%, the “Percentage Seq II” value turned out to be 0.028%, the “Percentage Average” value turned out to be 0.026% and the “Counts Seq I” value came to 106. Further, the “Counts Seq II” value amounted to 12.

FVRGDLYSVFG: the “Percentage Seq I” value turned out to be 0.023%, the “Percentage Seq II” value is reported as 0.026%, the “Percentage Average” value is 0.024% and the “Counts Seq I” value came to 102. In addition, the “Counts Seq II” value is 11.

Regarding CFAARLSNGDT, the “Counts (raw counts for peptide sequence), Seq I” value came to 73; the “Counts (raw counts for peptide sequence), Seq II” value was 7; the “Percentage of the pool, averaged across the two sequencing samples” value turned out to be 0.016%; the “Percentage of the pool, Seq I” value turned out to be 0.017%. The “Percentage of the pool, Seq II” value turned out to be 0.016%.

Consider SSWAQLPCRR, for which the “Percentage Seq I” value amounted to 0.066%, the “Percentage Seq II” value worked out at 0.070%, the “Percentage Average” value is listed as 0.068% and the “Counts Seq I” value was 289. Besides, the “Counts Seq II” value was determined as 30.

As to VYGSRYASIPFC, the “Counts (raw counts for peptide sequence), Seq I” value is given as 45; the “Counts (raw counts for peptide sequence), Seq II” value was 9; the “Percentage of the pool, averaged across the two sequencing samples” value is on record as 0.016%; the “Percentage of the pool, Seq I” value was found to be 0.010%. Also, the “Percentage of the pool, Seq II” value is 0.021%.

For CFANRLYGSDSH, the “Percentage Seq I” value is 0.031%, the “Percentage Seq II” value turned out to be 0.035%, the “Percentage Average” value was determined as 0.033% and the “Counts Seq I” value is listed as 135. Further, the “Counts Seq II” value was found to be 15.

Take RCWVRGSRNYT: the “Counts (raw counts for peptide sequence), Seq I” value was 45; the “Counts (raw counts for peptide sequence), Seq II” value is recorded as 4; the “Percentage of the pool, averaged across the two sequencing samples” value came out at 0.010%; the “Percentage of the pool, Seq I” value was determined as 0.010%. The “Percentage of the pool, Seq II” value worked out at 0.009%.

With CFTGRLSLDSI, the “Percentage Seq I” value was 0.031%, the “Percentage Seq II” value is reported as 0.039%, the “Percentage Average” value worked out at 0.035% and the “Counts Seq I” value was 134. Further, the “Counts Seq II” value is listed as 17.

In the case of CLRKTRDILSV, the “Counts (raw counts for peptide sequence), Seq I” value is 65; the “Counts (raw counts for peptide sequence), Seq II” value turned out to be 6; the “Percentage of the pool, averaged across the two sequencing samples” value was 0.014%; the “Percentage of the pool, Seq I” value amounted to 0.015%. Further, the “Percentage of the pool, Seq II” value turned out to be 0.014%.

As for SYGGRTFIYAWS, the “Counts (raw counts for peptide sequence), Seq I” value was 62; the “Counts (raw counts for peptide sequence), Seq II” value is 5; the “Percentage of the pool, averaged across the two sequencing samples” value was 0.013%; the “Percentage of the pool, Seq I” value is recorded as 0.014%. Also, the “Percentage of the pool, Seq II” value was determined as 0.012%.

As for WRDRFDQCVR, the “Percentage Seq I” value is 0.039%, the “Percentage Seq II” value came out at 0.053%, the “Percentage Average” value came out at 0.046% and the “Counts Seq I” value was determined as 169. The “Counts Seq II” value is given as 23.

The values above are taken from paper PMC12207370, “Macrocyclic Peptide Probes for Immunomodulatory Protein CD59: Potent Modulators of Bacterial Toxin Activity and Antibody‐Dependent Cytotoxicity” (Angewandte Chemie (International Ed. in English), 2025).
